Assay results as given in the supplement of paper PMC7877785.
± gives the uncertainty stated by the source.

Test: self-splicing fitness, log relative to wild type (ln ratio); higher = more splicing; Tetrahymena group I intron in knt gene, E. coli kanamycin selection, DiMSum; sequences stand for … in CUCUCU…GGAGGGAAAAGUUAUCAGGCAUGCACCUGGUAGCUAGUCUUUAAACCAAUAGAUUGCAUCGGUUUAAAAGGCAAGACCGUCAAAUUGCGGGAAAGGGGUCAACAGCCGUUCAGUACCAAGUCUCAGGGGAAACUUUGAGAUGGCCUUGCAAAGGGUAUGGUAAUAAGCUGACGGACAUGGUCCUAACCACGCAGCCAAGUCCUAAGUCAACAGAUCUUCUGUUGAUAUGGAUGCAGUUCACAGACUAAAUGUCGGUCGGGGAAGAUGUAUUCUUCUCAUAAGAUAUAGUCGGACCUCUCCUUAAUGGGAGCUAGCGGAUGAAGUGAUGCAACACUGGAGCCGCUGGGAACUAAUUUGUAUGCGAAAGUAUAUUGAUUAGUUUUGGAGUACUCGUGGUCG
How it was run: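 The eight P1ex-region nucleotides of an intron in the knt kanamycin-resistance gene on pET-22b(+) were all randomised and the library put into E. coli BL21(DE3). Six replicate transformations were grown overnight at 37°C or 30°C on LB agar with or without 25 μg/mL kanamycin, together with 100 μg/mL carbenicillin, 50 μM IPTG and 0.2% rhamnose. Colonies were pooled and amplicon-sequenced on an Illumina HiSeq 2500. Fitness from DiMSum is the error-weighted combination of wild-type-normalised replicate fold changes, kanamycin over none.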

Sequence | self-splicing fitness (ln) (30 °C) | self-splicing fitness (ln) (37 °C)
CAUUAGCAAUAUUACGAGUG | -3.06 ± 0.15 | -2.83 ± 0.2
GCUCAGCAAUAUUACGAGUC | -4.08 ± 0.26 | 
UGCUAGCAAUAUUACGUUCA | -0.255 ± 0.076 | 0.0245 ± 0.12
UGUUAGCAAUAUUACGGCUG | 0.0825 ± 0.08 | 0.196 ± 0.12
GGUUAGCAAUAUUACGCCCU | -0.754 ± 0.45 | -0.983 ± 0.48
AACAAGCAAUAUUACGAAAG | -2.14 ± 0.14 | -2.73 ± 0.22
UGUCAGCAAUAUUACGAGGA | -2.46 ± 0.22 | -0.886 ± 0.15
UUACAGCAAUAUUACGAGAC | -3.02 ± 0.27 | -2.18 ± 0.34
AGGAAGCAAUAUUACGGGGU | -3.19 ± 0.21 | -3.13 ± 0.43
AGGAAGCAAUAUUACGUAUU | -3.54 ± 0.24 | -0.582 ± 0.15
UAUAAGCAAUAUUACGAUGG | -1.62 ± 0.13 | -1.48 ± 0.2
GUUCAGCAAUAUUACGUCUA | -1.14 ± 0.14 | -0.132 ± 0.13
AUUGAGCAAUAUUACGGCUU | -2.62 ± 0.21 | -0.8 ± 0.17
GAUAAGCAAUAUUACGAGGG | -4.01 ± 0.39 | -2.19 ± 0.24
UCGUAGCAAUAUUACGUUAA | -1.59 ± 0.18 | -1.16 ± 0.17
CCUCAGCAAUAUUACGGUAC | -4.96 ± 0.32 | -2.26 ± 0.26
UGGCAGCAAUAUUACGGUGC | -3.3 ± 0.23 | -2.79 ± 0.32
GGUUAGCAAUAUUACGGAUU | 0.0654 ± 0.078 | -0.0766 ± 0.092
UGCCAGCAAUAUUACGUACG | -0.444 ± 0.061 | 0.435 ± 0.084
UCCGAGCAAUAUUACGCAUU | -2.2 ± 0.19 | -3.08 ± 0.37
CAUUAGCAAUAUUACGUCCG | -0.0564 ± 0.12 | -0.142 ± 0.15
AAUAAGCAAUAUUACGGGCG | -1.29 ± 0.086 | -0.752 ± 0.095
UAGCAGCAAUAUUACGACGG | -0.73 ± 0.09 | -0.313 ± 0.12
CCGGAGCAAUAUUACGGGUG | -1.61 ± 0.093 | -1.09 ± 0.1
AUGCAGCAAUAUUACGAUCG | -1.8 ± 0.084 | -1.16 ± 0.11

Sequence | self-splicing fitness (ln) (30 °C) | self-splicing fitness (ln) (37 °C)
UGUCAGCAAUAUUACGUCGC | -1.14 ± 0.25 | 
AUGCAGCAAUAUUACGGAUA | -2.99 ± 0.17 | -2.22 ± 0.17
AUUUAGCAAUAUUACGAAAG | -2.86 ± 0.25 | -0.748 ± 0.17
CCGCAGCAAUAUUACGAACG | -0.44 ± 0.085 | 0.193 ± 0.1
GUCCAGCAAUAUUACGCACA | -1 ± 0.16 | 0.0214 ± 0.12
ACGUAGCAAUAUUACGGGCG | -0.566 ± 0.19 | -1.07 ± 0.19
GAACAGCAAUAUUACGUCGU | -1.5 ± 0.065 | -0.479 ± 0.078
AGCAAGCAAUAUUACGCUCC | -3.78 ± 0.4 | -1.58 ± 0.39
CCCCAGCAAUAUUACGAUAA |  | -1.49 ± 0.22
UCAGAGCAAUAUUACGCGAU | -3.02 ± 0.26 | -2.08 ± 0.4
GGUUAGCAAUAUUACGAACG | -0.128 ± 0.21 | -0.629 ± 0.44
GCCAAGCAAUAUUACGGAGA | -1.45 ± 0.086 | -0.924 ± 0.089
ACGCAGCAAUAUUACGCGGA | -2.95 ± 0.22 | -1.87 ± 0.17
GGGAAGCAAUAUUACGUUCA | 0.0857 ± 0.1 | -0.473 ± 0.14
AGCUAGCAAUAUUACGGGCA | -0.728 ± 0.12 | -0.379 ± 0.14
GACGAGCAAUAUUACGGGGG | -3.65 ± 0.22 | -2.98 ± 0.3
CGAUAGCAAUAUUACGUGUG | -0.978 ± 0.057 | -0.336 ± 0.07
CAAUAGCAAUAUUACGGCCU | -2.69 ± 0.21 | -3.6 ± 0.39
GUGUAGCAAUAUUACGAUGG | -2.91 ± 0.19 | -1.81 ± 0.18
AUCAAGCAAUAUUACGUUUG | -2.87 ± 0.15 | -2.43 ± 0.18
GGCGAGCAAUAUUACGUAUA | -1.86 ± 0.14 | -1.07 ± 0.13
GGCAAGCAAUAUUACGGAUA | -0.889 ± 0.1 | -0.586 ± 0.097
CCCUAGCAAUAUUACGGCCU | -2.9 ± 0.21 | 
CGUGAGCAAUAUUACGGAUU | -4.38 ± 0.36 | -3.78 ± 0.46
UCUAAGCAAUAUUACGGUAA | -3.48 ± 0.36 | -1.33 ± 0.19

Sequence | self-splicing fitness (ln) (30 °C) | self-splicing fitness (ln) (37 °C)
CGCGAGCAAUAUUACGGGUA | -2.5 ± 0.23 | -2.11 ± 0.24
GCAAAGCAAUAUUACGCUCG | -0.748 ± 0.17 | -0.86 ± 0.24
CCGAAGCAAUAUUACGAGUC | -3.86 ± 0.21 | -2.53 ± 0.19
UGACAGCAAUAUUACGCCCU | 0.0425 ± 0.16 | 0.0969 ± 0.14
AAACAGCAAUAUUACGGAAA | -3.16 ± 0.18 | -1.8 ± 0.13
GAAAAGCAAUAUUACGCCUG | -0.929 ± 0.081 | -0.273 ± 0.11
GAGCAGCAAUAUUACGCGGC | -3.97 ± 0.25 | -1.87 ± 0.14
CGGGAGCAAUAUUACGGGUA | -2.54 ± 0.21 | -1.75 ± 0.2
AAGAAGCAAUAUUACGCGUC | -2.48 ± 0.27 | -1.21 ± 0.3
AAUAAGCAAUAUUACGAGGC |  | -2.31 ± 0.32
GAUCAGCAAUAUUACGCAGC | -1.64 ± 0.11 | -0.448 ± 0.13
GAGCAGCAAUAUUACGAGAA | -2.25 ± 0.31 | -2.61 ± 0.36
CCCGAGCAAUAUUACGUAGG | -2.04 ± 0.11 | -1.16 ± 0.14
UUCAAGCAAUAUUACGAGGU | -3.41 ± 0.29 | -1.89 ± 0.23
GGGAAGCAAUAUUACGUAUG | -2.95 ± 0.16 | -1.11 ± 0.15
UCGAAGCAAUAUUACGUUCU | -1.72 ± 0.091 | -1.53 ± 0.13
UGAUAGCAAUAUUACGGGCU | -2.42 ± 0.13 | -2.11 ± 0.14
UCUGAGCAAUAUUACGAAGU | -2.62 ± 0.16 | -1.56 ± 0.19
ACAUAGCAAUAUUACGGGUC | -3.93 ± 0.25 | -3.24 ± 0.28
AGUAAGCAAUAUUACGAAUC | -4.12 ± 0.42 | -2.86 ± 0.34
GUAGAGCAAUAUUACGUUCU | -2.74 ± 0.12 | -0.917 ± 0.099
ACUCAGCAAUAUUACGAUUA | -0.552 ± 0.065 | -0.431 ± 0.067
CAUUAGCAAUAUUACGUGCA | -2.31 ± 0.28 | 
UAGAAGCAAUAUUACGAGAU | -3.64 ± 0.33 | -2.16 ± 0.23
GUGCAGCAAUAUUACGUAUA | -1.42 ± 0.073 | 0.0392 ± 0.069

Sequence | self-splicing fitness (ln) (30 °C) | self-splicing fitness (ln) (37 °C)
UAUCAGCAAUAUUACGCUAC | -4.2 ± 0.42 | -3.24 ± 0.26
AUAAAGCAAUAUUACGAACU | 0.222 ± 0.095 | 0.227 ± 0.11
CAGAAGCAAUAUUACGUGCC | -4.04 ± 0.28 | -2.74 ± 0.3
AAACAGCAAUAUUACGUUUA | -2.11 ± 0.1 | -0.623 ± 0.078
CGUUAGCAAUAUUACGCUGU | -2.88 ± 0.22 | -2.71 ± 0.33
ACCCAGCAAUAUUACGUUCG | -3.74 ± 0.14 | -1.26 ± 0.088
CUAAAGCAAUAUUACGGUUC | -4.09 ± 0.2 | -2.68 ± 0.18
GGUUAGCAAUAUUACGCAGU | -1.5 ± 0.27 | -1.67 ± 0.3
CACAAGCAAUAUUACGAUAC | -3.58 ± 0.21 | -2.5 ± 0.29
CCGUAGCAAUAUUACGCGUU | -4.15 ± 0.39 | -2.86 ± 0.31
CACUAGCAAUAUUACGGAAC |  | -1.93 ± 0.22
CAUAAGCAAUAUUACGCCUA | -2.46 ± 0.35 | -0.984 ± 0.21
GAGAAGCAAUAUUACGCUAA | -2.47 ± 0.3 | -0.911 ± 0.24
CAGCAGCAAUAUUACGUAAU | -2.34 ± 0.16 | -1.91 ± 0.15
UGAGAGCAAUAUUACGCAGU | -4.62 ± 0.34 | -2.41 ± 0.18
CUGAAGCAAUAUUACGAGGG | -2.03 ± 0.11 | -1.25 ± 0.14
CAUGAGCAAUAUUACGCAGA | -4.53 ± 0.32 | -1.69 ± 0.15
CCAGAGCAAUAUUACGUUAC | -3.64 ± 0.46 | -1.7 ± 0.34
UCGGAGCAAUAUUACGCAAG |  | -2.23 ± 0.43
UACAAGCAAUAUUACGCUUG | -3.1 ± 0.23 | -2.79 ± 0.41
GGGAAGCAAUAUUACGAACG | -0.494 ± 0.086 | 0.55 ± 0.16
UGUAAGCAAUAUUACGAAAC | -4.22 ± 0.3 | -2.95 ± 0.25
